This note sets out measurements from article PMC9636575, “MqsR is a noncanonical microbial RNase toxin that is inhibited by antitoxin MqsA via steric blockage of substrate binding” (The Journal of Biological Chemistry, 2022).

The test addresses T1, MqsR (E. coli, UniProt Q46865 1-98).
T1 construct: also called MqsR toxin; 15N-labeled MqsR
Nature of the test: NMR titration; unlabeled MqsA(1-76) titrated into 15N-labeled MqsR (50 uM); 2D [1H,15N] HSQC; 298 K; 50 mM NaCl, 20 mM Na phosphate pH 6.5, 0.5 mM TCEP, 10% D2O. To be noted: both partners purified.

T1 sequence (Q46865 whole entry): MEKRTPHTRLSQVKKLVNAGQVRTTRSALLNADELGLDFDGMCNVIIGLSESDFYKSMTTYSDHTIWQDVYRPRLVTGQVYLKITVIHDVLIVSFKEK

B1: N-terminal toxin-binding domain of MqsA (residues 1-76) (domain or fragment)
chain: MKCPVCHQGEMVSGIKDIPYTFRGRKTVLKGIHGLYCVHCEESIMNKEESDAFMAQVKAFRASVNAETVAPEFIVK
notes: also called MqsA_(1-76); unlabeled MqsA_(1-76)
For the molecule B1, the binding result was “binds”.
